Test results published in patent US20250084155A1 (University of Texas, published 2025).

B1: chimeric 77A with a human IgG1 Fc domain (antibody, V domains shown)
VH: QIQLVQSGPELKKPGETVKISCKASGYTFTNYGMNWVKQAPGKGLKWMGWINTYTGEPTYADDFKGRFAFSLETSATTAYLQINNLKNEDTATYFCARYDHAMDYWGQGTSVTVSS
VL: DIVMSQSPSSLAVSAGEKVTMSCKSSQSLLNSGTRKNYLAWYQQKPGQSPKLLIYWTSTRESGVPDRFTGSGSGTDFTLTINSVQAEDLAVYYCKQSYTLYTFGGGTKLEIK
notes: also called Chimera IgG1; IgG1 Chimera
B2: chimeric 77A with a human IgG2 Fc domain (antibody, V domains shown)
VH: QIQLVQSGPELKKPGETVKISCKASGYTFTNYGMNWVKQAPGKGLKWMGWINTYTGEPTYADDFKGRFAFSLETSATTAYLQINNLKNEDTATYFCARYDHAMDYWGQGTSVTVSS
VL: DIVMSQSPSSLAVSAGEKVTMSCKSSQSLLNSGTRKNYLAWYQQKPGQSPKLLIYWTSTRESGVPDRFTGSGSGTDFTLTINSVQAEDLAVYYCKQSYTLYTFGGGTKLEIK
notes: also called Chimera IgG2; IgG2 Chimera
B3: chimeric 77A with a human IgG4 Fc domain (antibody, V domains shown)
VH: QIQLVQSGPELKKPGETVKISCKASGYTFTNYGMNWVKQAPGKGLKWMGWINTYTGEPTYADDFKGRFAFSLETSATTAYLQINNLKNEDTATYFCARYDHAMDYWGQGTSVTVSS
VL: DIVMSQSPSSLAVSAGEKVTMSCKSSQSLLNSGTRKNYLAWYQQKPGQSPKLLIYWTSTRESGVPDRFTGSGSGTDFTLTINSVQAEDLAVYYCKQSYTLYTFGGGTKLEIK
notes: also called Chimera IgG4; IgG4 Chimera
B4: h77A-1.1 (antibody, V domains shown)
VH: QIQLVQSGAEVKKPGASVKVSCKASGYTFTKYGMNWVRQAPGQGLEWMGWINTYTGEPTYADDFKGRFTFTTDTSTSTAYMELRSLRSDDTAVYFCARYDHAMDYWGQGTLVTVSS
VL: EIVLTQSPDSLAVSLGERATINCKSSQSLLNSGTRKNYLAWYQQKAGQSPKLLIYWTSTRESGVPDRFSGSGSGTDFTLTIDSLQAEDVAVYYCKQSYTLYTFGGGTKVEIK
notes: captured by anti-human Fc
B5: h77A-12 (antibody, V domains shown)
VH: QVQLQQSGPEVKKPGASVKISCKTSGYTFTNYGMNWVRQAPGQGLEWMGWINTYTGEPTYADDFKGRVTMTTDTSTSTAYLELTGLMSDDTAVYFCARYDHAMDYWGQGTTVTVSS
VL: DIVMTQSPDSLSVSLGERATINCKSSQSLLNSGTRKNYLAWYQQKPGQPPRLLIYWTSTRESGVPDRFSGSGSGTDFTLTINTLQAEDVAVYYCKQSYTLYTFGQGTKLEIK
B6: h77A-25 (antibody, V domains shown)
VH: QIQLVQSGPEVKKPGESVKVSCKASGYTFTNYGMNWVRQAPGKGLEWMGWINTYTGEPTYADDFKGRVTITRDTSASTAYMELSSLRSEDTAVYFCARYDHAMDYWGQGTSVTVSS
VL: DIVMTQSPDSLAVSLGERATINCKSSQSLLNSGTRKNYLAWYQQKPGQSPKLLIYWTSTRESGVPDRFSGSGSGTDFTLTISSLQAEDVAVYYCKQSYTLYTFGGGTKLEIK
B7: h77A-23 (antibody, V domains shown)
VH: QIQLVQSGPEVKKPGESVKVSCKASGYTFTNYGMNWVRQAPGKGLEWMGWINTYTGEPTYADDFKGRVTITRDTSASTAYMELSSLRSEDTAVYFCARYDHAMDYWGQGTSVTVSS
VL: DVVMTQSPDSLAVSLGERVTINCKSSQSLLNSGTRKNYLAWYQQKPGQSPKLLIYWTSTRESGVPDRFSGSGSGTDFTLTISSLQAEDVAVYYCKQSYTLYTFGQGTKLEIK
B8: h77A-16 (antibody, V domains shown)
VH: EVQLVESGGGLVKPGGSLRLSCKASGYTFTNYGMNWVRQAPGKGLKWVGWINTYTGEPTYADDFKGRFTFSRDDSKNTLYLQMNSLKTEDTAVYFCARYDHAMDYWGQGTSVTVSS
VL: EIVLTQSPDSLAVSLGERATINCKSSQSLLNSGTRKNYLAWYQQKAGQSPKLLIYWTSTRESGVPDRFSGSGSGTDFTLTIDSLQAEDVAVYYCKQSYTLYTFGGGTKVEIK
B9: h77A-22 (antibody, V domains shown)
VH: QIQLVQSGPEVKKPGESVKVSCKASGYTFTNYGMNWVRQAPGKGLEWMGWINTYTGEPTYADDFKGRVTITRDTSASTAYMELSSLRSEDTAVYFCARYDHAMDYWGQGTSVTVSS
VL: DIVMTQSPDSLSVSLGERATINCKSSQSLLNSGTRKNYLAWYQQKPGQPPRLLIYWTSTRESGVPDRFSGSGSGTDFTLTINTLQAEDVAVYYCKQSYTLYTFGQGTKLEIK
B10: h77A-15 (antibody, V domains shown)
VH: QVQLQQSGPEVKKPGASVKISCKTSGYTFTNYGMNWVRQAPGQGLEWMGWINTYTGEPTYADDFKGRVTMTTDTSTSTAYLELTGLMSDDTAVYFCARYDHAMDYWGQGTTVTVSS
VL: DIVMTQSPDSLAVSLGERATINCKSSQSLLNSGTRKNYLAWYQQKPGQSPKLLIYWTSTRESGVPDRFSGSGSGTDFTLTISSLQAEDVAVYYCKQSYTLYTFGGGTKLEIK
B11: h77A-13 (antibody, V domains shown)
VH: QVQLQQSGPEVKKPGASVKISCKTSGYTFTNYGMNWVRQAPGQGLEWMGWINTYTGEPTYADDFKGRVTMTTDTSTSTAYLELTGLMSDDTAVYFCARYDHAMDYWGQGTTVTVSS
VL: DVVMTQSPDSLAVSLGERVTINCKSSQSLLNSGTRKNYLAWYQQKPGQSPKLLIYWTSTRESGVPDRFSGSGSGTDFTLTISSLQAEDVAVYYCKQSYTLYTFGQGTKLEIK
B12: h77A-1.6 (antibody, V domains shown)
VH: QIQLVQSGAEVKKPGASVKVSCKASGYTFTNYGMNWVRQAPGQGLEWMGWINTYTGEPTYADDFKGRFTFTTDTSTRTAYMELRSLRSDDTAVYFCARYDHAMDYWGQGTLVTVSS
VL: EIVLTQSPDSLAVSLGERATINCKSSQSLLNSGTRKNYLAWYQQKAGQSPKLLIYWTSTRESGVPDRFSGSGSGTDFTLTIDSLQAEDVAVYYCKQSYTLYTFGGGTKVEIK
notes: captured by anti-human Fc
B13: h77A-1.8 (antibody, V domains shown)
VH: QIQLVQSGAEVKKPGASVKVSCKASGYTFTNYGMNWVRQAPGQGLEWMGWINTYTGEPTYADDFKGRFTFTTDTSTSTAYMELRSLRSDDTAVYFCARYDHAMDYWGQGTLVTVSS
VL: EIVLTQSPDSLAVSLGERATIKCKSSQSLLNSGTRKNYLAWYQQKAGQSPKLLIYWTSTRESGVPDRFSGSGSGTDFTLTIDSLQAEDVAVYYCKQSYTLYTFGGGTKVEIK
notes: captured by anti-human Fc
B14: h77A-14 (antibody, V domains shown)
VH: QVQLQQSGPEVKKPGASVKISCKTSGYTFTNYGMNWVRQAPGQGLEWMGWINTYTGEPTYADDFKGRVTMTTDTSTSTAYLELTGLMSDDTAVYFCARYDHAMDYWGQGTTVTVSS
VL: DIQMTQSPSSLSASVGDRVTITCKSSQSLLNSGTRKNYLAWYQQKPGKVPKLLIYWTSTRESGVPSRFSGSGSGTDFTLTISSLQPEDVATYYCKQSYTLYTFGGGTKLEIK
B15: h77A-24 (antibody, V domains shown)
VH: QIQLVQSGPEVKKPGESVKVSCKASGYTFTNYGMNWVRQAPGKGLEWMGWINTYTGEPTYADDFKGRVTITRDTSASTAYMELSSLRSEDTAVYFCARYDHAMDYWGQGTSVTVSS
VL: DIQMTQSPSSLSASVGDRVTITCKSSQSLLNSGTRKNYLAWYQQKPGKVPKLLIYWTSTRESGVPSRFSGSGSGTDFTLTISSLQPEDVATYYCKQSYTLYTFGGGTKLEIK
B16: h77A-9 (antibody, V domains shown)
VH: QIQLVQSGAEVKKPGSSVKVSCKASGYTFTNYGMNWVRQAPGQGLEWMGWINTYTGEPTYADDFKGRFTFTADESTSTAYMELSSLRSEDTAVYFCARYDHAMDYWGQGTLVTVSS
VL: DIQMTQSPSSLSASVGDRVTITCKSSQSLLNSGTRKNYLAWYQQKPGKVPKLLIYWTSTRESGVPSRFSGSGSGTDFTLTISSLQPEDVATYYCKQSYTLYTFGGGTKLEIK

Assays:
[1] = target: T1, HSP70 (human HSP70; the antigen of the binning, humanization and variant binding assays) (human, UniProt P0DMV8 1-641, limits assumed); assay: BLI, antibody on sensor
T1 construct: also called hu HSP70
Experimental: Humanized variants were characterized for binding using biolayer interferometry (BLI). Chimeric antibodies including the murine 77A antigen binding region and human Fe regions were also tested. Antibodies and reagents were diluted out onto microwell plates and loaded into the instrument. Diluted antibodies were first immobilized onto dip-and-read sensors, and then measurements for baselines were acquired. Subsequently, the sensors were dipped into wells containing the antigen in solution, or buffer alone. The change in number of molecules bound to the sensor was quantified by measurement of the shift in the interference pattern of light during each step of the protocol. Mathematical modeling was performed based on those values and the concentrations of reagents used in the assay and used to calculate kinetics values.

[2] = target: T1, HSP70 (human HSP70; the antigen of the …); assay: BLI, anti-human Fc capture, steady state
Experimental: (§1) Further kinetics assays were conducted for select antibody variants. Assays were performed as follows. Antibody variants were immobilized using anti-human Fc onto the surface of a series of biosensors. Antigen was passed over the surface to generate a binding response. Binding data for the antibody: antigen interactions were collected at 25° C. on the biosensors. A dilution series of the antigen was used in the association step, in order to fit results globally and get the best values for ka, kd, and KD. The response data for the binding of antigen to the surface immobilized antibody were fitted to a 1:1 binding model.

[3] = target: T1, HSP70 (human HSP70; the antigen of the …); assay: BLI, anti-human Fc capture, antigen 100 nM
Experimental: Binding assays were performed as follows. Antibody variants were immobilized using anti-human Fc onto the surface of a series of biosensors at […]. Antigen, at 100 nM, was passed over the surface to generate a binding response. Binding data for the antibody:antigen interactions were collected at 25° C. on the biosensors. In Table 14, X=610 represents captured antigen value (nM) at the beginning of the dissociation phase (measured at 610 seconds after the biosensor was initially contacted with antigen) and X=1495 represents captured antigen value (nM) at the end of the dissociation phase (measured at 1495 seconds after the biosensor was initially contacted with antigen). In Table 14, antibodies with an X=610 value greater than 0.2 and a % dissociation less than 10% are shown in bold.

[4] = target: T1, HSP70 (human HSP70; the antigen of the …); assay: BLI, anti-human Fc capture, antigen dilution series, 1:1 fit
Experimental: as §1

T1 sequence (P0DMV8 whole entry, change not shown): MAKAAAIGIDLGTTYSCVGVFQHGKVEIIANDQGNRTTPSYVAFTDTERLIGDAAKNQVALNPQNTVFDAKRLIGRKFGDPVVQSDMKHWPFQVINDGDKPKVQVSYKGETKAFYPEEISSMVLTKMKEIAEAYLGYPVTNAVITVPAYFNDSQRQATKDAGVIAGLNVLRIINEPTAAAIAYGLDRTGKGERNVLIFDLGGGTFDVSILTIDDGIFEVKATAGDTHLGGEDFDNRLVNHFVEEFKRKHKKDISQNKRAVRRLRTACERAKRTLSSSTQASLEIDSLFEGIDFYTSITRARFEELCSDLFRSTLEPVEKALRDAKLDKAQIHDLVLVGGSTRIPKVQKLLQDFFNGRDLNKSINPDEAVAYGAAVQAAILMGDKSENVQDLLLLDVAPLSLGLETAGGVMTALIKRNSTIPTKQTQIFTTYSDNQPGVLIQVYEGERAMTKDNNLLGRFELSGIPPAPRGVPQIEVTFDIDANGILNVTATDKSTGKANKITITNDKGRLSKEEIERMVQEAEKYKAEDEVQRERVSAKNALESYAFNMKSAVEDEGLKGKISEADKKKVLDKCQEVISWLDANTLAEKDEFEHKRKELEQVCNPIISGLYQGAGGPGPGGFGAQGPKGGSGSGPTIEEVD

Binder | Kd [1] | koff [1] | kon [1] | KD Steady State [2] | % Diss [3] | Kd [4] | koff [4] | kon [4]
B1 | 1.39 nM | 9.94e-05 s⁻¹ | 71600 M⁻¹ s⁻¹ | – | – | – | – | –
B2 | 1.52 nM | 0.000112 s⁻¹ | 73700 M⁻¹ s⁻¹ | – | – | – | – | –
B3 | 1.81 nM | 0.000129 s⁻¹ | 71300 M⁻¹ s⁻¹ | – | – | – | – | –
B4 | – | – | – | 0.032 nM | 3.88% | 0.69 nM | 6.11e-05 s⁻¹ | 88500 M⁻¹ s⁻¹
B5 | 10 nM | 0.000446 s⁻¹ | 44500 M⁻¹ s⁻¹ | – | – | – | – | –
B6 | 10.6 nM | 0.000503 s⁻¹ | 47300 M⁻¹ s⁻¹ | – | – | – | – | –
B7 | 8.96 nM | 0.000447 s⁻¹ | 49900 M⁻¹ s⁻¹ | – | – | – | – | –
B8 | 10.5 nM | 0.00046 s⁻¹ | 44000 M⁻¹ s⁻¹ | – | – | – | – | –
B9 | 8.31 nM | 0.000302 s⁻¹ | 36400 M⁻¹ s⁻¹ | – | – | – | – | –
B10 | 10.8 nM | 0.000513 s⁻¹ | 47600 M⁻¹ s⁻¹ | – | – | – | – | –
B11 | 8.85 nM | 0.000396 s⁻¹ | 44700 M⁻¹ s⁻¹ | – | – | – | – | –
B12 | – | – | – | 1.8 nM | 6.58% | 2.11 nM | 0.000114 s⁻¹ | 54200 M⁻¹ s⁻¹
B13 | – | – | – | 0.31 nM | 8.62% | 1.35 nM | 7.42e-05 s⁻¹ | 54800 M⁻¹ s⁻¹
B14 | 15 nM | 0.000616 s⁻¹ | 41100 M⁻¹ s⁻¹ | – | – | – | – | –
B15 | 9.26 nM | 0.000294 s⁻¹ | 31800 M⁻¹ s⁻¹ | – | – | – | – | –
B16 | 8.89 nM | 0.000348 s⁻¹ | 39200 M⁻¹ s⁻¹ | – | – | – | – | –
